Results from paper doi:10.1101/2021.10.07.463402.

Molecular target: SARS-CoV-2 spike glycoprotein (S), wild type (SARS-CoV-2 strain Wuhan-Hu-1)
Assay: native gel or EMSA

For “SARS-CoV-2 spike glycoprotein (S), wild type (natural protein)”, which stoichiometry N is on record?
Its stoichiometry N is 3.
